# Results taken from US20230012273A1 (Boehringer Ingelheim, published 2023).
# Like-named read-outs stand apart in the source and are kept apart here.
# T1: mouse SIRPα extracellular domain + His-tag (NP_031573) (mouse, UniProt P97797 32-373)
# T1 chain: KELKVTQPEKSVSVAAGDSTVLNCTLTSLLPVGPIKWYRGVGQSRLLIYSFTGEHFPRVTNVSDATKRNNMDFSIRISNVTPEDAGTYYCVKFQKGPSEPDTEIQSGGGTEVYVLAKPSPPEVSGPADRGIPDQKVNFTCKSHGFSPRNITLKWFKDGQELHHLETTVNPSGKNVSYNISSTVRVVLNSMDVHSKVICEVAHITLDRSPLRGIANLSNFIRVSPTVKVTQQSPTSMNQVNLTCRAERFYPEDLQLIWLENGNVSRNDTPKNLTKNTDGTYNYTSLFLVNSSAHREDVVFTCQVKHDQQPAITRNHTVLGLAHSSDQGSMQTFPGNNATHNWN
# B1: anti-SIRPα antibody SIRP AB11 (antibody, V domains shown)
# VH: QVQLVQSGAEVKKPGASVKVSCKASGYTFRGYGISWVRQAPGQGLEWMGWISAYGGETNYAQKLQGRVTMTTDTSTSTAYMELRSLRSDDTAVYYCAREAGSSWYDFDLWGRGTLVTVSS
# VL: DIQMTQSPSSVSASVGDRVTITCRASQGISSWLAWYQQKPGKAPKLLIYAASNLQSGVPSRFSGSGSGTDFTLTISSLQPEDFATYYCQQGASFPITFGGGTKVEIKR
# B2: Antibody E (antibody, human IgG1, kappa, L234A L235A)
# heavy: not shown
# light: DIVMTQSPLSLPVTPGEPASISCKSSQSLLYSNGYNYLDWYLQRPGQSPQLLIYLGSNRASGVPDRFSGSGSGTDFTLKISRVEAEDVGVFYCMQALQTPLTFGGGTKVEIKRTVAAPSVFIFPPSDEQLKSGTASVVCLLNNFYPREAKVQWKVDNALQSGNSQESVTEQDSKDSTYSLSSTLTLSKADYEKHKVYACEVTHQGLSSPVTKSFNRGEC
# B3: Antibody A11 (antibody, human IgG4 S228P, kappa)
# heavy: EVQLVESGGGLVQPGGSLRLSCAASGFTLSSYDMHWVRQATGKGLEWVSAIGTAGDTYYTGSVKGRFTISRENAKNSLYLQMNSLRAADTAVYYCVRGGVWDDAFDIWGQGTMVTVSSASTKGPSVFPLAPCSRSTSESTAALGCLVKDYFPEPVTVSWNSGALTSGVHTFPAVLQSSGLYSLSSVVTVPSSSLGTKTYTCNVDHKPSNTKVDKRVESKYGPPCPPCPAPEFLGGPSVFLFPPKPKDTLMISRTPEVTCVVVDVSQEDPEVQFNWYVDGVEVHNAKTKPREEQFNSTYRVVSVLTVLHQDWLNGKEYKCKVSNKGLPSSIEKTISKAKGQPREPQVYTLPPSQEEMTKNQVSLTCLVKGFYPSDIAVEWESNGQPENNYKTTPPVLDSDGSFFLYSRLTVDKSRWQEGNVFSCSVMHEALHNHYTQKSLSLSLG
# light: DIQMTQSPSSLSASVGDRVTITCRASQDINNYLAWFQQKPGKAPKSLIYTASSLHSGVPSKFSGSGSGTDFTLTISSLQPEDFATYYCQQYVSYPYTFGQGTKLEIKRTVAAPSVFIFPPSDEQLKSGTASVVCLLNNFYPREAKVQWKVDNALQSGNSQESVTEQDSKDSTYSLSSTLTLSKADYEKHKVYACEVTHQGLSSPVTKSFNRGEC
# Experiments:
# [1] = target: T2, full-length human SIRPαV1 (NP_542970.1) on cells (human, UniProt P78324 31-504); assay: flow cytometry, CD14+ monocytes V1V1
# T2 construct: one molecule for CHO-K1 and Expi-CHO transfectants (NP_542970.1) and for endogenous V1 on U-937 cells and on CD14+ monocytes of V1/V1 donors; also called CHO-hSIRPαV1; αV1 WT
# T2 sequence (P78324 31-504): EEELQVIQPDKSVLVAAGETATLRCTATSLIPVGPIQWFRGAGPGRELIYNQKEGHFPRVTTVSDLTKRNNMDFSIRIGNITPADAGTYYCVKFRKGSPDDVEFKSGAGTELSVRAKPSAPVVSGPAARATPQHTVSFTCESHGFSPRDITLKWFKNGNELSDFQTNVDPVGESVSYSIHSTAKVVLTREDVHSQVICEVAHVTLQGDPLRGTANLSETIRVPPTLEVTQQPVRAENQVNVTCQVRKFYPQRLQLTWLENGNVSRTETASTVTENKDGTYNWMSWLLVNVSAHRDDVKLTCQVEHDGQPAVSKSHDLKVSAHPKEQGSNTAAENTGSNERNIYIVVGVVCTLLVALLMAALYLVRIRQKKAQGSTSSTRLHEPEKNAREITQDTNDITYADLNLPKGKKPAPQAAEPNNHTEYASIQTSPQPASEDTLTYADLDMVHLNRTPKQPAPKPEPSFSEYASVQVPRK
# Procedure: (§1) Antibody binding to primary human cells expressing SIRPα is evaluated by flow cytometry. Human peripheral blood mononuclear cells (PBMCs) from donors genotyped as homozygous for the SIRPα V1 allele, V2 allele, or heterozygous for both alleles are blocked with donkey IgG and incubated on ice with increasing concentrations of antibody for 60 minutes, washed and stained with AF647-conjugated donkey F(ab′)₂ anti-human IgG secondary reagent. […] Cells are washed, fixed, and analyzed by flow cytometry. Median fluorescent intensity of the CD14+ population was determined and used as a measure of antibody binding.
# [2] = target: T3, full-length human SIRPαV2 (CAA71403.1) on cells (human, UniProt P78324 31-504); assay: flow cytometry, competition with CD47 tetramer, monocytes V2V2
# T3 construct: one molecule for CHO-K1 and Expi-CHO transfectants (CAA71403.1) and for endogenous V2 on THP-1 cells and on CD14+ monocytes of V2/V2 donors; also called CHO-hSIRPαV2; αV2 WT
# T3 sequence (P78324 other isoform, or with tags, fused parts or gaps): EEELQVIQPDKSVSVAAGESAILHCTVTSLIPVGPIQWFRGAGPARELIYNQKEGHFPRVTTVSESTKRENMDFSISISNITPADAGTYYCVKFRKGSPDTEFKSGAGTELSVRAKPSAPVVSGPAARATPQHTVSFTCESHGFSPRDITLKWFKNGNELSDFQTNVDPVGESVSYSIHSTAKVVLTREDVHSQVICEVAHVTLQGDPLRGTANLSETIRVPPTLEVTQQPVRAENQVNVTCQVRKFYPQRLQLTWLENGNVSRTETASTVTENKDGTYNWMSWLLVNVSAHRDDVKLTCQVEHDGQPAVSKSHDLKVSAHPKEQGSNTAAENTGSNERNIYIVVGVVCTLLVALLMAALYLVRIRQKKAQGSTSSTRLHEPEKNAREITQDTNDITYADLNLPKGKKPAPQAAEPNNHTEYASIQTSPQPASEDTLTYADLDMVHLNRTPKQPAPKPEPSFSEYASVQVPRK
# Procedure: (§2) Cells are washed, fixed, and analyzed by flow cytometry. Median fluorescent intensity of CD14+gated population is determined and used as a measure of CD47 binding.
# [3] = target: T2, full-length human SIRPαV1 (NP_542970.1) …; assay: flow cytometry, competition with CD47 tetramer, monocytes V1V1
# Procedure: as §2
# [4] = target: T4, full-length human SIRPβ1 (NP_006056.2) on cells (human, UniProt O00241 30-398); assay: flow cytometry, U937 SIRPα-KO transfectants
# T4 construct: also called β1 WT
# T4 sequence (O00241 30-398): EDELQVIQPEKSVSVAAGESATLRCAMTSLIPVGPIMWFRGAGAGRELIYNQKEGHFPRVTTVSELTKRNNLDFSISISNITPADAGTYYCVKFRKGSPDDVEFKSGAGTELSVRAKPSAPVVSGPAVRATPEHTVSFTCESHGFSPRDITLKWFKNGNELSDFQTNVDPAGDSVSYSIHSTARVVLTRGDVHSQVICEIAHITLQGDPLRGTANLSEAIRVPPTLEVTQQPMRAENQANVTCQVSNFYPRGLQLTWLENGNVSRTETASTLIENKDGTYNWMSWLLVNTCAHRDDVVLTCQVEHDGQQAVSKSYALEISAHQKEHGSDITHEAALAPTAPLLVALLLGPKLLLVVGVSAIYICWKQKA
# Procedure: (§3) Antibody binding to cells expressing full-length human SIRPβ1 (NP_006056.2) and SIRPβL (NP_001129316.1) is evaluated by flow cytometry. SIRPβ1- or SIRPβL-expressing U937^{SIRPα KO} cells are blocked with donkey IgG and incubated on ice with increasing concentrations of antibodies for 60 minutes, washed and stained with AF647-conjugated donkey F(ab′)₂ anti-human IgG secondary reagent. Cells are washed, fixed, and analyzed by flow cytometry. Median fluorescent intensity is determined and used as a measure of antibody binding.
# [5] = target: T5, full-length human SIRPβL (NP_001129316.1) on cells (human, UniProt Q5TFQ8 30-398); assay: flow cytometry, U937 SIRPα-KO transfectants
# T5 construct: one molecule for U937 SIRPα-KO transfectants (NP_001129316.1) and Expi-CHO transfectants (Q5TFQ8); also called SIRPβ1v3; βL WT
# T5 sequence (Q5TFQ8 30-398): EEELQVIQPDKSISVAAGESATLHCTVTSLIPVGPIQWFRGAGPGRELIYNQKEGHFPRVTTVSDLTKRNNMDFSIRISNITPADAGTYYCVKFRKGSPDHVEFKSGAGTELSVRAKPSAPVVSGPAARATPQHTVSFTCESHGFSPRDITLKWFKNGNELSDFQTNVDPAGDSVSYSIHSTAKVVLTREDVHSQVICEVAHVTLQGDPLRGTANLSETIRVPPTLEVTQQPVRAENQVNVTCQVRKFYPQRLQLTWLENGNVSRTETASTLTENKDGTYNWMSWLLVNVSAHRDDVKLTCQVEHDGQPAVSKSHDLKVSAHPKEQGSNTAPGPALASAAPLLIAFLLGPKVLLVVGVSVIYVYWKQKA
# Procedure: as §3
# [6] = target: T6, full-length human SIRPγ (NP_061026.2) on cells (human, UniProt Q9P1W8 29-387); assay: flow cytometry, primary CD3+ T cells
# T6 construct: also called CHO-hSIRPγ; γ WT
# T6 sequence (Q9P1W8 29-387): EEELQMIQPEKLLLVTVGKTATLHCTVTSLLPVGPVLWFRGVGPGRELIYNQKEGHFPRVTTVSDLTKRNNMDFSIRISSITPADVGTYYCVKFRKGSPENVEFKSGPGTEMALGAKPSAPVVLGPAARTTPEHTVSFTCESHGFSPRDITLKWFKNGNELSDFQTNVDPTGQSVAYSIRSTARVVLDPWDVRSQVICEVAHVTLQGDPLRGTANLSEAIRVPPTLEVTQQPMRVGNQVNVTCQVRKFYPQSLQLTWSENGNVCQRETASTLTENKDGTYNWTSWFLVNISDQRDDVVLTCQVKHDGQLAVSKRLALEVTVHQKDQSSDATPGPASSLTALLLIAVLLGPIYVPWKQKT
# Procedure: Antibody binding to primary human T cells expressing endogenous SIRPγ is evaluated by flow cytometry. Human peripheral blood mononuclear cells (PBMCs) are blocked with donkey IgG and incubated on ice with increasing concentrations of antibody for 60 minutes, washed and stained with AF647-conjugated donkey F(ab′)₂ anti-human IgG secondary reagent. […] Cells are washed, fixed, and analyzed by flow cytometry. Median fluorescent intensity of CD3+ gated population is determined and used as a measure of antibody binding.
# [7] = target: T3, full-length human SIRPαV2 (CAA71403.1) …; assay: flow cytometry, CD14+ monocytes V2V2
# Procedure: as §1
# [8] = target: T7, human SIRPαV2 extracellular domain + His-tag (CAA71403.1) (human, UniProt P78324 31-373); assay: SPR, Ab captured, ECD-His analyte
# T7 construct: also called hSIRPαV2; HuSIRPαV2
# T7 sequence (P78324 other isoform, or with tags, fused parts or gaps): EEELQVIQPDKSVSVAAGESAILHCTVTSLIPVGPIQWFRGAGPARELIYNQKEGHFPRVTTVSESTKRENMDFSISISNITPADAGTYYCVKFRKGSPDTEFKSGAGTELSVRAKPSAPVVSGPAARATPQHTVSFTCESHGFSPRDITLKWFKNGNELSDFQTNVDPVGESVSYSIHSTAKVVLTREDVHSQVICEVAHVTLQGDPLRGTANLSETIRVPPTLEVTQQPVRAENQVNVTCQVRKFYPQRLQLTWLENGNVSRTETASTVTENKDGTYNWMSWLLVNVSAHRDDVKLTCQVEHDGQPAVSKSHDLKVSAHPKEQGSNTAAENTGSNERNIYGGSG
# How it was run: (§4)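 In HBS-EP+ (1×), captured antibodies are exposed to a twofold concentration series of SIRP extracellular domain carrying a His tag, using 300 s contact at 30 μl/min and a 600 s dissociation window.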
# [9] = target: T8, human SIRPαV1 extracellular domain + His-tag (NP_542970.1) (human, UniProt P78324 31-373); assay: SPR, Ab captured, ECD-His analyte
# T8 construct: also called hSIRPαV1; HuSIRPαV1
# T8 sequence (P78324 other isoform, or with tags, fused parts or gaps): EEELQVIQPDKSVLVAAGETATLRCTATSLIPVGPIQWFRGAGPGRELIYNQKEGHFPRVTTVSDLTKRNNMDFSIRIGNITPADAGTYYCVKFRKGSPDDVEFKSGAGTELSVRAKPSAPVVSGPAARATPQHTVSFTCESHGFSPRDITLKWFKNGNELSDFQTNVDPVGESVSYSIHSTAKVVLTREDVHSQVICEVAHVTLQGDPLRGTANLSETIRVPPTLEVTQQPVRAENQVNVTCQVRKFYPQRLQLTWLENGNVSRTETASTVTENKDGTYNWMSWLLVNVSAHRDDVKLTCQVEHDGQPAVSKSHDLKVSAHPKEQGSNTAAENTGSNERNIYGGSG
# How it was run: as §4
# [10] = target: T9, human SIRPγ extracellular domain + His-tag (NP_061026.2) (human, UniProt Q9P1W8 29-360); assay: SPR, Ab captured, ECD-His analyte
# T9 construct: also called hSIRPγ; HuSIRPγ
# T9 sequence (Q9P1W8 29-360): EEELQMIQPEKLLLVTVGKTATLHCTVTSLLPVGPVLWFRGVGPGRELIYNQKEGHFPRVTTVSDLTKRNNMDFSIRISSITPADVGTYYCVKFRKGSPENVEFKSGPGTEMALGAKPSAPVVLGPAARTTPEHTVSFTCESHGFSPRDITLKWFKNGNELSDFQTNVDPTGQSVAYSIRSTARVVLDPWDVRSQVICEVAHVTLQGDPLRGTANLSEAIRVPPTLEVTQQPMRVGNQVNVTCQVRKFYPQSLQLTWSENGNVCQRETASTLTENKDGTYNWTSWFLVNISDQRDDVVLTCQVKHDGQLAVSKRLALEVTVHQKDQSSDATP
# How it was run: as §4
# [11] = target: T10, human SIRPβL/SIRPβ1v3 extracellular domain + His-tag (NP_001129316.1) (human, UniProt Q5TFQ8 30-371); assay: SPR, Ab captured, ECD-His analyte
# T10 construct: also called hSIRPβ1v3; HuSIRPβ1v3
# T10 sequence (Q5TFQ8 other isoform, or with tags, fused parts or gaps): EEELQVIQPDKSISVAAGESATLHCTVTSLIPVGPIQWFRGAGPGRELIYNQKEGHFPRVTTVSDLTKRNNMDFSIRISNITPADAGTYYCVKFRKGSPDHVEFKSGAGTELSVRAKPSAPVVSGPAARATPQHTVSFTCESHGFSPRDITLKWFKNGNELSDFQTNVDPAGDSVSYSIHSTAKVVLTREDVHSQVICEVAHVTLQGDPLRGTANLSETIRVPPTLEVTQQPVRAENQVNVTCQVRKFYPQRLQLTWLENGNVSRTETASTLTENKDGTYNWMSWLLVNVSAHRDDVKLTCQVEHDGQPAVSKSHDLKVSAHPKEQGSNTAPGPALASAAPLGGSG
# How it was run: as §4
# [12] = target: T11, human SIRPβ1 extracellular domain + His-tag (NP_006056.2) (human, UniProt O00241 30-371); assay: SPR, Ab captured, ECD-His analyte
# T11 construct: also called hSIRPβ1; HuSIRPβ1
# T11 sequence (O00241 other isoform, or with tags, fused parts or gaps): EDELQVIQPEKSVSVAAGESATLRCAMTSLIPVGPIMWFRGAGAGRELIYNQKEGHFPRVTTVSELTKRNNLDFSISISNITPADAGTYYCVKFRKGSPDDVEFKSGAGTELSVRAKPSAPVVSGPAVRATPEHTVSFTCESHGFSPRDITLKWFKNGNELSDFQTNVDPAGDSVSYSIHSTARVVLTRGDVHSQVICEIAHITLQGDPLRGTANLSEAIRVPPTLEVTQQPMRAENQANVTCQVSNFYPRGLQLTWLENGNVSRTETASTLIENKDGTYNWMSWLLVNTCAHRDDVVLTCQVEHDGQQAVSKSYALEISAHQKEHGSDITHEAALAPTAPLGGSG
# How it was run: as §4
# [13] = target: T7, human SIRPαV2 extracellular domain + …; assay: SPR, Ab captured, ECD-His analyte; remark: listed apart in the source
# How it was run: as §4
# [14] = target: T8, human SIRPαV1 extracellular domain + …; assay: SPR, Ab captured, ECD-His analyte; remark: listed apart in the source
# How it was run: as §4
# [15] = target: T10, human SIRPβL/SIRPβ1v3 extracellular …; assay: SPR, Ab captured, ECD-His analyte; remark: listed apart in the source
# How it was run: as §4
# [16] = target: T11, human SIRPβ1 extracellular domain + …; assay: SPR, Ab captured, ECD-His analyte; remark: listed apart in the source
# How it was run: as §4
# [17] = target: T1, mouse SIRPα extracellular domain + …; assay: SPR, Ab captured, ECD-His analyte
# Procedure: The binding affinity of anti-SIRPα antibodies to the various SIRPα analytes is determined by surface plasmon resonance (SPR) using a ProteOn XPR36 (Bio-Rad). The running buffer for this experiment and all dilutions (except where stated) are done in 1×HBS-EP+. […] The sensorchip is deactivated with 1M ethanolamine HCl for 420 sec at a flowrate of 10 μl/min.
# The analyte is injected over the captured antibody for 300 sec at a flowrate of 30 μl/min. The dissociation is done for 600 sec. Two-fold serial dilutions of each SIRP protein (Extracellular Domain+His-Tag) are injected as analyte with the highest concentrations indicated in table 36 below.
# [18] = target: full-length human SIRPβ1 D→H on Expi-CHO cells (human, UniProt O00241 30-398); assay: flow cytometry, Expi-CHO cells
# Sequence of full-length human SIRPβ1 D→H on Expi-CHO cells (O00241 30-398 D130H): as the sequence (O00241 30-398) above, with D101H counted along it
# Procedure: These cells are blocked with donkey IgG and incubated on ice with increasing concentrations of antibodies for 60 minutes, washed and stained with AF647-conjugated donkey F(ab′)₂ anti-human IgG antibodies. Stained cells are washed, fixed, and analyzed by flow cytometry. Median fluorescent intensity is determined and used as a measure of antibody binding.
# [19] = target: ED-tagged human SIRPα V1 receptor on Jurkat signaling reporter cells (human, UniProt P78324 31-504); assay: cell-based or functional assay
# [20] = target: ED-tagged human SIRPα V2 receptor on Jurkat signaling reporter cells (human, UniProt P78324 31-504); assay: cell-based or functional assay
# [21] = target: T5, full-length human SIRPβL …; assay: flow cytometry, U937 SIRPα-KO cells expressing full-length human SIRPβL
# Procedure: as §3
binder,measurement,setting,value
B1,EC50,[1],0.1 nM
same,IC50,[2],0.05 nM
same,IC50,[3],0.02 nM
same,EC50,[4],0.1 nM
same,EC50,[5],0.2 nM
same,EC50,[6],0.02 nM
same,EC50,[7],0.1 nM
B2,Kd,[8],0.42 nM
same,Kd,[9],0.456 nM
same,binding result,[10],no binding (tested: 1000 nM)
same,Kd,[11],1.16 nM
same,Kd,[12],1230 nM
same,Kd,[13],0.33 nM
same,Kd,[14],0.425 nM
same,Kd,[15],0.81 nM
same,Kd,[16],771 nM
same,binding result,[17],no binding
same,binding result,[18],no binding
B3,Blockade of Cellular CD47-Mediated SIRPα Signaling; IC50,[19],0.04 nM
same,Blockade of Cellular CD47-Mediated SIRPα Signaling; IC50,[20],0.02 nM
same,EC50,[4],0.3 nM
same,binding result,[6],no binding
same,binding result,[21],no binding (tested: about 200 nM)
